Laboratory results as given in US20210253711A1 (CULLINAN MICA, published 2021).

How the values were obtained:
[1] = target: T1, Recombinant MICA*02 protein; experiment: ELISA, coated MICA*02, OD 450 nm
T1 construct: Coated on ELISA plates
T1 sequence (Q29983 whole entry, species assumed, looked up): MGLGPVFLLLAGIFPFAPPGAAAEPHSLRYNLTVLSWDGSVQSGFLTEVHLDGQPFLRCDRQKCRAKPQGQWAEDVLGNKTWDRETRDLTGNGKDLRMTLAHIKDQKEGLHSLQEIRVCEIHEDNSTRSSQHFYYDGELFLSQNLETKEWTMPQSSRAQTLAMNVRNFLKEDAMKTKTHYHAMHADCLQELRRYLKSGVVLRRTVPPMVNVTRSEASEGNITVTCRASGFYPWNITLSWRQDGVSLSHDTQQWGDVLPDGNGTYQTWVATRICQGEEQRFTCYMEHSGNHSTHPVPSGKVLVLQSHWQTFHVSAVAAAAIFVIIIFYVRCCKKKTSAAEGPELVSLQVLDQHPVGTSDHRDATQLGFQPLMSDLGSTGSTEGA
Description: (§1) Recombinant MICA*01, MICA*02, MICA*04, MICA*08, MICA*09, and MICB proteins were diluted to 1 μg/ml in 50 mM sodium carbonate buffer, pH 9.6, and coated onto high binding 96-well microplates (Corning #9018), 100 ng in 100 ul per well. The following morning, coated ELISA plates were washed three times with TBS-Tween-20, pH 7.4 and then blocked in SuperBlock T20 Blocking Buffer (Pierce #37536). After blocking, ELISA plates were washed once with TBS-T and incubated with serially diluted anti-MICA antibody (0-1 μg/ml) for approximately two hours at room temperature. Following the incubation, ELISA plates were washed three times with TBS-T and then incubated with Goat anti-Mouse IgG (H+L)-HRP conjugate (ThermoFisher Scientific #626520) for 45 minutes at room temperature with shaking (˜400 rpm). After the incubation, ELISA plates were washed three times with TBS-T and incubated with Super Sensitive Liquid Substrate TMB (Sigma #T4444), 100 ul per well, until color development was sufficient. The reaction was stopped with 1N sulfuric acid, 100 ul per well. Optical density (OD) values were measured at 450 nm using a microplate reader.

[2] = target: T2, Recombinant MICA*09 protein; experiment: ELISA, coated MICA*09, OD 450 nm
T2 construct: Coated on ELISA plates
T2 sequence (Q29983 whole entry, species assumed, looked up): T1 sequence (Q29983 whole entry, species assumed, looked up)
Description: as §1

[3] = target: T3, Recombinant MICA*01 protein (Homo sapiens (Human), UniProt Q29983 24-307); experiment: ELISA, coated MICA*01, OD 450 nm
T3 construct: Coated on ELISA plates
T3 sequence: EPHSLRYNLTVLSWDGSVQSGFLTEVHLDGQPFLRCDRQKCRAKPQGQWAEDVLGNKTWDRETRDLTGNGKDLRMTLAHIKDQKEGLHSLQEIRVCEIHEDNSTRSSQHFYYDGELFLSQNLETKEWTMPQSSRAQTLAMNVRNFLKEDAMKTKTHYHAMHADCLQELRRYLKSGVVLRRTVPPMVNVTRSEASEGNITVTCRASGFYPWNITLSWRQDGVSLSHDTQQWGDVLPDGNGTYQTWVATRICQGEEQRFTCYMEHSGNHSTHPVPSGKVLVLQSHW
Description: as §1

[4] = target: T4, Recombinant MICA*04 protein; experiment: ELISA, coated MICA*04, OD 450 nm
T4 construct: Coated on ELISA plates
T4 sequence (Q29983 whole entry, looked up): T1 sequence (Q29983 whole entry, species assumed, looked up)
Description: as §1

Recombinant MICB protein = target: T5, Recombinant MICB protein (UniProt Q29980 23-298, limits assumed); experiment: ELISA, coated MICB, OD 450 nm
T5 construct: Coated on ELISA plates
T5 sequence (looked up): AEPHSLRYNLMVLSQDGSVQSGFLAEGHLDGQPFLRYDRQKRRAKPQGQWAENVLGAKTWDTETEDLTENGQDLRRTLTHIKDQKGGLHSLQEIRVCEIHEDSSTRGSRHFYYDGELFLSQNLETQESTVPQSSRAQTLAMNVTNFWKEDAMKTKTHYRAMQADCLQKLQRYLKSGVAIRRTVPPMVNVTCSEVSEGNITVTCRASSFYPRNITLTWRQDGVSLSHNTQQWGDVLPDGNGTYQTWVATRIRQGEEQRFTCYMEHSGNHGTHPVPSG
Description: as §1

[5] = target: T6, Recombinant MICA*08 protein; experiment: ELISA, coated MICA*08, OD 450 nm
T6 construct: Coated on ELISA plates
T6 sequence (Q29983 whole entry, looked up): T1 sequence (Q29983 whole entry, species assumed, looked up)
Description: as §1

Measured: EC50 (read off the curve)

B1: 3F9.E4 (antibody, V domains shown)
VH: EVQLQESGEGLVKPGGSLKLSCAASGFTFSNYAMSWVRQTPEKRLEWVAYISPGGDYIYYADTVKGRFTISRDNARNTLYLQMSSLKSEDTAMYYCTTDRRHYGSYAMDYWGQGISVTVSS
VL: DIVMTQAAPSVPVTPGESVSISCRSSKSLLHSNGNTYLYWFLQRPGQSPQLLIYRMSNLASGVPDRFSGSGSGTAFTLRISRVEAEDVGVYYCMQHLEYPFTFGSGTKLEIK
notes: the mAb was captured on anti-mouse IgG Fc biosensors and detected with goat anti-mouse IgG, so it is a mouse IgG; also called anti-MICA/B mAb; anti-MICA antibody
~0.03 µg/mL: all assays above

B2: 16F10.C12 (antibody, V domains shown)
VH: EVQLQESGPGLVAPSQSLSITCTVSGFSLTAFGVNWVRQPPGKGLEWLGMIWGDGNTDYNSTLRSRLSISKDNSKSQVFLKLNSLQTDDTARYFCARETYYGNYAGLGYWGQGTLVTVSA
VL: QIVLTQSPAIMSASIGERVTMTCTASSSVSSNYLHWYQQKPRSSPKLWIYTTSNLASGVPTRFSGSGSGTSYSLTISSMEAEDAATYYCHQFHRSPFTFGSGTKLEIK
notes: as for B1
~0.03 µg/mL: [1] | [2] | [3] | Recombinant MICB protein
